The source of these data is publication PMC6780499, “Characterization, Recombinant Production and Structure-Function Analysis of NvCI, A Picomolar Metallocarboxypeptidase Inhibitor from the Marine Snail Nerita versicolor” (Marine Drugs, 2019).

One assay deals with T1, bCPA1 (Bos taurus, UniProt P00730).
T1 sequence (P00730 111-419): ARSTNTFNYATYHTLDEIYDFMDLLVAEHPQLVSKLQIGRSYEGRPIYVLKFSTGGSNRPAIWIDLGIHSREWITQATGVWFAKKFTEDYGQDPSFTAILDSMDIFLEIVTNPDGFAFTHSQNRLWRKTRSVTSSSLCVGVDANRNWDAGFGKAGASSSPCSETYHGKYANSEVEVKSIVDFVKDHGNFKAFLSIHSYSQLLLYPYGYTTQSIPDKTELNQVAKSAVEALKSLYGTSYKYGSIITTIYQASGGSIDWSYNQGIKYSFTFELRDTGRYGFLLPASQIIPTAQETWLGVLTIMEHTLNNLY
The assay is described as follows: Ki determination, tight-binding inhibition of metallocarboxypeptidase. In kind it is biochemical, bovine. The procedure:
Inhibitory activities against CPA- and CPB-type forms (bovine and human variants of CPA1, CPA2, CPA4, CPB1, and TAFI) were assayed for all extracts, subject to the experimental conditions that enzyme (E), substrate (S) and inhibitor (I) concentrations as well as the [I]/[E] ratio and preincubation time followed the requirements for tight-binding inhibitor assays. Similar approaches were followed to measure the activities of proteases of different catalytic types, like pepsin, papain, trypsin and subtilisin [45, 46, 47, 48]. All assays were performed in triplicate at 25 °C in a multiplexed manner. For 96-well assays an iEMS spectrophotometer reader/dispenser FM (Labsystems, Finland) was used with a final reaction volume of 250 μL. For cuvette assays, a Cary 400 Bio spectrophotometer (Varian Inc., Palo Alto, CA, USA) spectrophotometer was used with a final reaction volume of 1 ml. The reactions were followed at 5 s intervals for 5 min and recorded as initial velocities. In the protease inhibition assays, mixtures of activity buffer, biological sample and enzyme were preincubated at 25 °C for 10min, before substrate addition. The assay conditions were as follows: for CPA-like enzymes, 7.0nM CPA, 0.1mM AAFP substrate in 20mM Tris-HCl pH 7.5, 500mMNaCl, 1% v/v dimethyl sulfoxide (DMSO), 0.05% w/v BRIJ-35 was used. For CPB-like enzymes, CPB 3.0nM CPB, 0.1mM AAFA substrate and activity buffer of 20 mM Tris-HCl pH [50].
(§1) The Ki values of natural and recombinant NvCI against bCPA1, hCPA1, hCPA2, rat CPA3, hCPA4, hCPB1, bTAFI, hTAFI, hCPD and hCPZ were determined by measuring the enzymatic residual activity (Vi/V0 = a) at different inhibitor concentrations and using a fixed enzyme and substrate concentrations as described above, where vi and v0 are the fraction of enzymatic activity in the presence and absence of inhibitor, respectively, in terms of initial velocities. The determination of Ki values was carried out on equilibrium conditions ([E0]/Ki ≤ 10), using a previously determined preincubation time of 15 min, required to establish enzyme-inhibitor equilibrium. Working temperature was 37 °C. The best estimates of Ki values were obtained by fitting the experimental data to the equation for tight-binding inhibitors by non-linear regression using the GraphPad Prisma 5 software (GraphPad Software, Inc., San Diego, CA, USA) at p < 0.05. The real Ki values against each of these A/B-type MCPs were calculated according to the equation described by Morrison and Copeland [19, 20].

Another assay concerns different MCPs. Put plainly: Apparent binding kinetics, effect of preincubation time. Conditions: preincubation over different periods of time, titration and equilibrium conditions. The format is biochemical. As to the method:
as §1, with “The determination of Ki values was carried out on equilibrium conditions ([E0]/Ki ≤ 10), using a previously determined preincubation time of 15 min, required to establish enzyme-inhibitor equilibrium.” left out

In a further assay the test system is CPA1 forms. The description is as above. Particulars: preincubation over different periods of time, titration and equilibrium conditions. The format is biochemical. The procedure: as §1, with “The determination of Ki values was carried out on equilibrium conditions ([E0]/Ki ≤ 10), using a previously determined preincubation time of 15 min, required to establish enzyme-inhibitor equilibrium.” left out

Where two headings read alike, the source gives them in different places. No end group written: not given here.

In the case of “NvCI: 53-residue, three-disulphide proteinaceous metallocarboxypeptidase inhibitor from the marine snail Nerita versicolor; major isoform; UniProt P86912 (FHVPDDRPCINPGRCPLVPDATCTFVCKAADNDFGYECQHVWTFEGQRVGCYA; disulfide (positions not given here); also: three disulphides, pairing not given here; UniProt P86912 1-53, looked up)”, the Ki with bCPA1 (natural isoforms, apparent Ki, without correction by competing assays, read-out: derived Ki towards bCPA (apparent Ki values)) was found to be 27 ± 2 pM; with bCPA1 (tight-binding equation fit, equilibrium conditions, substrate AAFP 0.1mM, 20mM Tris-HCl pH 7.5, 500mM NaCl, preincubation 15 min, 37 °C, means (n = 3) ± SD, read-out: Ki) it was 9.6 ± 1.4 pM. Moreover, the binding behaviour result is recorded as “fast binding” in the assay on different MCPs and “slow binding behavior” in the assay with CPA1 forms.
